This is an account of results in PMC5374546.

Assay [1] has as its target Fcε3-4 Fcε3-4 (Homo sapiens) (UniProt P01854). As to the kind of experiment: sedimentation equilibrium. The note with it: cited from earlier work.
The target in assay [2] is IgE-Fc (Val224-Lys547, with glycosylation-site double mutation N265Q and N371Q) (human). As to the kind of experiment: ITC; 260 uM derCD23 in the syringe titrated into 12.5 uM IgE-Fc dimer in the cell; 25 mM Tris-HCl pH 7.4, 125 mM NaCl, 4 mM CaCl2; 25 °C; iTC200; two-site (2:1) binding model.

Chain of UniProt P01854 (P01854 209-426): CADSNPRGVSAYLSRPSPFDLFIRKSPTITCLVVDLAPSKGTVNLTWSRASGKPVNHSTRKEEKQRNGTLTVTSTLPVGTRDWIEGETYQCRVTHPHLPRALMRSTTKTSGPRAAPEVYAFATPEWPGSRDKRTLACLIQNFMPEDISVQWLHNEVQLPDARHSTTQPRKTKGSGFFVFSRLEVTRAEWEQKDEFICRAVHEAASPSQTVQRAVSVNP

What is called Kd is the equilibrium constant for the complex coming apart. With derCD23 derCD23 (from UniProt P06734), the Kd in assay [1] is 10 µM.

B1: derCD23 (soluble monomeric lectin-like head domain of human CD23, Ser156-Glu298) (domain or fragment)
chain: SGFVCNTCPEKWINFQRKCYYFGKGTKQWVHARYACDDMEGQLVSIHSPEEQDFLTKHASHTGSWIGLRNLDLKGEFIWVDGSHVDYSNWAPGEPTSRSQGEDCVMMRGSGRWNDAFCDRKLGAWVCDRLATCTPPASEGSAE
In assay [2], B1 gave a KD1 (site 1 of the two-site model) of 1.2 µM, a KD2 (site 2 of the two-site model) of 14.4 µM, a dH1 (site 1 of the two-site model) of -7.2 kcal/mol and a dH2 (site 2 of the two-site model) of -3.7 kcal/mol. In addition, in assay [2], the stoichiometry N (derCD23 per IgE-Fc dimer) was 2.
